Where a chain is given by its changes, count along the chain named. Numbers in names are those of the source. Each block holds one binder with its values, some of them ahead of it.
What was measured:
[1] = target: helicar motif amino acid sequence cysteine variant 2, …(5-Fluo)-OH x TFA; test: covalent disulfide coupling, 2.5 molar excess of peptide
[2] = target: Ac-PYY(PEG3-Cys-4Abu-Dig) / Ac-IK(PEG3-Cys-4Abu-Dig)-Pqa-…-MeArg-Y-NH2; test: mass spectrometry of the covalent disulfide conjugate, 2:1 peptide to antibody, no redox agents
[3] = target: Ac-PYY(PEG3-Cys-4Abu-NH2) / Ac-IK(PEG3-Cys-4Abu-NH2)-Pqa-…-MeArg-Y-NH2; test: mass spectrometry, non-haptenylated peptide 2.1:1 to antibody
[4] = target: PEG3-PYY(PEG3-Cys-4Abu-Dig) / PEG3-IK(PEG3-Cys-4Abu-Dig)-Pqa-…-MeArg-Y-NH2; test: mass spectrometry of the covalent disulfide conjugate, 2:1 peptide to antibody, 1 mM GSH / 5 mM GSSG
[5] = target: Ac-PYY(PEG3-Cys-PEG2-5-Fluo) / Ac-IK(PEG3-Cys-PEG2-5-Fluo)-Pqa-…-MeArg-Y-NH2; test: mass spectrometry of the covalent disulfide conjugate, 2.5:1 peptide to antibody, no redox agents

% of antibody covalently conjugated to one helicar motif amino acid sequence [1]: 40%
% of antibody covalently conjugated to two helicar motif amino acid sequences [1]: 43%
% of antibody not conjugated [1]: 17%
B1: anti-helicar motif amino acid sequence antibody (0155), light chain variable domain N55C variant (antibody, V domains shown)
V domain 1: QAVVTQEPSLTVSPGGTVTLTCGSSTGAVTTSNYASWVQQKPGQAFTGLIGGTNNRAPWTPARFSGSLLGGKAALTLSGAQPEDEAEYYCALWYSNHWVFGGGTKLTVL
V domain 2: DAVVTQESALTTSPGETVTLTCRSSTGAVTTSNYASWVQEKPDHLFTGLIGGTNCRAPGVPARFSGSLIGDKAALTITGAQTEDEAIYFCALWYSNHWVFGGGTKLTVL

% of detected species = antibody coupled to 1 peptide molecule [2]: 40%
% of detected species = antibody coupled to 2 peptide molecules [2]: 7.4%
% of detected species = uncoupled antibody [2]: 52%
% of detected species = antibody coupled to 1 peptide molecule [3]: 51%
% of detected species = antibody coupled to 2 peptide molecules [3]: 17%
% of detected species = uncoupled antibody [3]: 32%
% of detected species = antibody coupled to 1 peptide molecule [4]: 46%
% of detected species = antibody coupled to 2 peptide molecules [4]: 43%
% of detected species = uncoupled antibody [4]: 11%
B2: humanized anti-digoxigenin antibody VH52bC (antibody, from a related filing, V domains shown)
VH: QVQLVESGGGLVKPGGSLRLSCAASGFTFSDYAMSWIRQAPGKGLEWVSSINICATYIYYADSVKGRFTISRDNAKNSLYLQMNSLRAEDTAVYYCARPGSPYEYDKAYYSMAYWGQGTTVTVSS
VL: DIQMTQSPSSLSASVGDRVTITCRASQDIKNYLNWYQQKPGKAPKLLIYYSSTLLSGVPSRFSGSGSGTDFTLTISSLQPEDFATYYCQQSITLPPTFGCGTKVEIK

% of detected species = uncoupled antibody [3]: 100%
B3: humanized anti-digoxigenin antibody (antibody, from a related filing, V domains shown)
VH: B2 VH with C54G
VL: B2 VL with C100G

% of detected species = antibody coupled to 1 peptide molecule [5]: 5%
% of detected species = antibody coupled to 2 peptide molecules [5]: 95%
B4: anti-fluorescein antibody VH52bC (antibody, V domains shown)
VH: GVKLDETGGGLVQPGGAMKLSCVTSGFTFGHYWMNWVRQSPEKGLEWVAQFRNCPYNYETYYSDSVKGRFTISRDDSKSSVYLQMNNLRVEDTGIYYCTGASYGMEYLGQGTSVTVSS
VL: DVVMTQTPLSLPVSLGDQASISCRSSQSLVHSNGNTYLRWYLQKPGQSPKVLIYKVSNRVSGVPDRFSGSGSGTDFTLKINRVEAEDLGVYFCSQSTHVPWTFGGGTKLEIK

% of detected species = antibody coupled to 2 peptide molecules [5]: 100%
B5: anti-fluorescein antibody VH28C (antibody, from a related filing, V domains shown, part only)
VH: B4 VH with T28C, C54K
VL: B4 VL
